Assay [1] has as its target T1, rat amylin receptor (rat calcitonin receptor + rat RAMP 3) (rat, UniProt P32214 25-516; Q9JJ73 23-147).
T1 construct: whole, on cells; Membranes of BHK tk'ts 13 cells transiently transfected with the rat calcitonin receptor and rat RAMP 3; also called rAmylin-R; rat amylin 3(a) receptor
T1 sequence (looked up) 1: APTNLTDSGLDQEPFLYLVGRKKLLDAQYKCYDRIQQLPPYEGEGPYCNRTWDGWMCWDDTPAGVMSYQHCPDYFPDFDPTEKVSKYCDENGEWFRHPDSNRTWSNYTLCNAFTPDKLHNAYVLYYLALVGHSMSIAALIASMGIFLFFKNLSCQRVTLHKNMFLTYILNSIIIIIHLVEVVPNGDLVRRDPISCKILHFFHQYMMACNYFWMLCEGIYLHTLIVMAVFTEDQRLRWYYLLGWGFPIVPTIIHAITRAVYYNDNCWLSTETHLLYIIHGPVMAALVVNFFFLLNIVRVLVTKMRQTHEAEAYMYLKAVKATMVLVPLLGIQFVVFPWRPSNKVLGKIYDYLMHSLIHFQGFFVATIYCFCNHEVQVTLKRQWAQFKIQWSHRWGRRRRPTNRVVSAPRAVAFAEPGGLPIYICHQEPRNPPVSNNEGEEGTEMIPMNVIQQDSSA
T1 sequence (looked up) 2: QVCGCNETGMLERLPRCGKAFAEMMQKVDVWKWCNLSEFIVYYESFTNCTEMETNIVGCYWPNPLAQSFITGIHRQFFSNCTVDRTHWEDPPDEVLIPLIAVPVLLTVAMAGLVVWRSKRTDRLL
As to the kind of experiment: SPA competition vs 125I-rat amylin, membranes with rat CTR + rat RAMP3 (Assay VI).

Assay [2] has as its target T2, rat calcitonin receptor (rat, UniProt P32214 25-516).
T2 construct: whole, on cells; Membranes of BHK tk'ts 13 cells transiently transfected with the rat calcitonin receptor; also called rCTR; rat calcitonin (a) receptor
T2 sequence (looked up): T1 sequence (looked up) 1
As to the kind of experiment: IC50 at rCTR divided by IC50 at rAmylin-R (reference).

In assay [3] the target is T3, human calcitonin receptor (human, UniProt P30988 25-474).
T3 construct: whole, on cells; Membranes of a BHK tk'ts 13 cell line stably transfected with the human calcitonin receptor; also called hCTR; hCT
T3 sequence (looked up): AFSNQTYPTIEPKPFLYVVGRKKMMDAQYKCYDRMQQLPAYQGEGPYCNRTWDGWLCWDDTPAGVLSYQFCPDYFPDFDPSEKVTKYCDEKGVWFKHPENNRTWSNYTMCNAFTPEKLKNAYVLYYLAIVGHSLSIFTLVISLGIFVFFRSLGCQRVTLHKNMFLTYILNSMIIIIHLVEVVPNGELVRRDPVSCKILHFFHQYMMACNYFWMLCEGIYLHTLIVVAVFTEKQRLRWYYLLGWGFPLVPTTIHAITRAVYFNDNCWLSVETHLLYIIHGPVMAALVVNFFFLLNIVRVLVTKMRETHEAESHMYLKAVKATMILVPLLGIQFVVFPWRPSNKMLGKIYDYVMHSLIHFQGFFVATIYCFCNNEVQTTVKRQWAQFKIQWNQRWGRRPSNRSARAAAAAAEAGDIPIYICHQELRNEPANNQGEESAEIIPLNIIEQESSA
The assay is described as follows: IC50 at hCTR divided by IC50 at hAmylin-R (reference). Summed up:
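Competition binding by SPA uses membrane preparations (35 ng/μL final) in pH 7.4 Hepes buffer with 1 mM CaCl2 and 5 mM MgCl₂. Incubation lasts 120 min at 25° C, and IC₅₀ comes from one-site fitting.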

In assay [4] the target is T2, rat calcitonin receptor. As to the kind of experiment: SPA competition vs 125I-calcitonin, membranes with rat CTR (Assay VIII).

Numbered stars: 1 amine (or outer) side, 2 acyl side, 3 side chain; on linkers, the order of the positions; unused ones are H or OH. Bridge positions count the residues as written; N and C are the ends. Side chains are listed from the residue outwards. Ends that are not written are not given here. * marks the point of attachment. C20 diacid = O=C(O)CCCCCCCCCCCCCCCCCCC(=O)*; γGlu = O=C(O)[C@H](CCC(=O)[*:2])N[*:1]; AEEA = NCCOCCOCC(=O)O

B1: N^ε1-[2-[2-[2-[[(4S)-4-carboxy-4-(19-carboxynonadecanoylamino)butanoyl]amino]ethoxy]ethoxy]acetyl]-[Arg17,Pro21,Pro27,Pro31]-h-amylin (peptide)
peptide: K([AEEA-γGlu-C20 diacid])CNTATCATQRLANFLRHSSPNFGAIPSSTPVGSNTY-NH2
modifications: disulfide 2-7; N-terminus assumed
SMILES: CC[C@H](C)[C@H](NC(=O)[C@H](C)NC(=O)CNC(=O)[C@H](Cc1ccccc1)NC(=O)[C@H](CC(N)=O)NC(=O)[C@@H]1CCCN1C(=O)[C@H](CO)NC(=O)[C@H](CO)NC(=O)[C@H](Cc1c[nH]cn1)NC(=O)[C@H](CCCNC(=N)N)NC(=O)[C@H](CC(C)C)NC(=O)[C@H](Cc1ccccc1)NC(=O)[C@H](CC(N)=O)NC(=O)[C@H](C)NC(=O)[C@H](CC(C)C)NC(=O)[C@H](CCCNC(=N)N)NC(=O)[C@H](CCC(N)=O)NC(=O)[C@@H](NC(=O)[C@H](C)NC(=O)[C@@H]1CSSC[C@H](NC(=O)[C@@H](N)CCCCNC(=O)COCCOCCNC(=O)CC[C@H](NC(=O)CCCCCCCCCCCCCCCCCCC(=O)O)C(=O)O)C(=O)N[C@@H](CC(N)=O)C(=O)N[C@@H]([C@@H](C)O)C(=O)N[C@@H](C)C(=O)N[C@@H]([C@@H](C)O)C(=O)N1)[C@@H](C)O)C(=O)N1CCC[C@H]1C(=O)N[C@@H](CO)C(=O)N[C@@H](CO)C(=O)N[C@H](C(=O)N1CCC[C@H]1C(=O)N[C@H](C(=O)NCC(=O)N[C@@H](CO)C(=O)N[C@@H](CC(N)=O)C(=O)N[C@H](C(=O)N[C@@H](Cc1ccc(O)cc1)C(N)=O)[C@@H](C)O)C(C)C)[C@@H](C)O
notes: modifications are with respect to human amylin; also called compound 49
On to B1, for which the IC50 (in general, the point on the concentration scale where inhibition reaches its midpoint) in assay [1] came out at 1.08 nM; in assay [4], 51.4 nM. Besides, the “Ratio rCT/rAmylin binding” value in assay [2] came out at 47.7. Moreover, the “Ratio hCT/hAmylin binding” value in assay [3] worked out at 10.8.

B2: N^ε1-[(4S)-4-carboxy-4-[[(4S)-4-carboxy-4-(19-carboxynonadecanoylamino)butanoyl]amino]butanoyl]-[Asp14,Arg17,Pro21,Pro26,Asp35]-h-amylin (peptide)
peptide: K([γGlu-γGlu-C20 diacid])CNTATCATQRLADFLRHSSPNFGAPLSSTNVGSDTY-NH2
modifications: disulfide 2-7; N-terminus assumed
SMILES: CC(C)C[C@H](NC(=O)[C@H](CCCNC(=N)N)NC(=O)[C@H](CCC(N)=O)NC(=O)[C@@H](NC(=O)[C@H](C)NC(=O)[C@@H]1CSSC[C@H](NC(=O)[C@@H](N)CCCCNC(=O)CC[C@H](NC(=O)CC[C@H](NC(=O)CCCCCCCCCCCCCCCCCCC(=O)O)C(=O)O)C(=O)O)C(=O)N[C@@H](CC(N)=O)C(=O)N[C@@H]([C@@H](C)O)C(=O)N[C@@H](C)C(=O)N[C@@H]([C@@H](C)O)C(=O)N1)[C@@H](C)O)C(=O)N[C@@H](C)C(=O)N[C@@H](CC(=O)O)C(=O)N[C@@H](Cc1ccccc1)C(=O)N[C@@H](CC(C)C)C(=O)N[C@@H](CCCNC(=N)N)C(=O)N[C@@H](Cc1c[nH]cn1)C(=O)N[C@@H](CO)C(=O)N[C@@H](CO)C(=O)N1CCC[C@H]1C(=O)N[C@@H](CC(N)=O)C(=O)N[C@@H](Cc1ccccc1)C(=O)NCC(=O)N[C@@H](C)C(=O)N1CCC[C@H]1C(=O)N[C@@H](CC(C)C)C(=O)N[C@@H](CO)C(=O)N[C@@H](CO)C(=O)N[C@H](C(=O)N[C@@H](CC(N)=O)C(=O)N[C@H](C(=O)NCC(=O)N[C@@H](CO)C(=O)N[C@@H](CC(=O)O)C(=O)N[C@H](C(=O)N[C@@H](Cc1ccc(O)cc1)C(N)=O)[C@@H](C)O)C(C)C)[C@@H](C)O
notes: modifications are with respect to human amylin; also called compound 1
For the molecule B2, the values for the IC50 in assay [1] and in assay [4] were 1.3 nM and 135 nM, respectively. In addition, the “Ratio rCT/rAmylin binding” value in assay [2] is 104. The “Ratio hCT/hAmylin binding” value in assay [3] was 27.6.

B3: N^ε1-[(4S)-4-carboxy-4-(19-carboxynonadecanoylamino)butanoyl]-[Arg17,Pro21,Pro27,Glu35]-h-amylin (peptide)
peptide: K([γGlu-C20 diacid])CNTATCATQRLANFLRHSSPNFGAIPSSTNVGSETY-NH2
modifications: disulfide 2-7; N-terminus assumed
SMILES: CC[C@H](C)[C@H](NC(=O)[C@H](C)NC(=O)CNC(=O)[C@H](Cc1ccccc1)NC(=O)[C@H](CC(N)=O)NC(=O)[C@@H]1CCCN1C(=O)[C@H](CO)NC(=O)[C@H](CO)NC(=O)[C@H](Cc1c[nH]cn1)NC(=O)[C@H](CCCNC(=N)N)NC(=O)[C@H](CC(C)C)NC(=O)[C@H](Cc1ccccc1)NC(=O)[C@H](CC(N)=O)NC(=O)[C@H](C)NC(=O)[C@H](CC(C)C)NC(=O)[C@H](CCCNC(=N)N)NC(=O)[C@H](CCC(N)=O)NC(=O)[C@@H](NC(=O)[C@H](C)NC(=O)[C@@H]1CSSC[C@H](NC(=O)[C@@H](N)CCCCNC(=O)CC[C@H](NC(=O)CCCCCCCCCCCCCCCCCCC(=O)O)C(=O)O)C(=O)N[C@@H](CC(N)=O)C(=O)N[C@@H]([C@@H](C)O)C(=O)N[C@@H](C)C(=O)N[C@@H]([C@@H](C)O)C(=O)N1)[C@@H](C)O)C(=O)N1CCC[C@H]1C(=O)N[C@@H](CO)C(=O)N[C@@H](CO)C(=O)N[C@H](C(=O)N[C@@H](CC(N)=O)C(=O)N[C@H](C(=O)NCC(=O)N[C@@H](CO)C(=O)N[C@@H](CCC(=O)O)C(=O)N[C@H](C(=O)N[C@@H](Cc1ccc(O)cc1)C(N)=O)[C@@H](C)O)C(C)C)[C@@H](C)O
notes: modifications are with respect to human amylin; also called compound 27
Consider B3, for which the IC50 in assay [1] is 0.614 nM; in assay [4], 90.2 nM. Besides, the “Ratio rCT/rAmylin binding” value in assay [2] came to 147. Besides, in assay [3], the “Ratio hCT/hAmylin binding” value was 41.3.

B4: N^ε1-[(4S)-4-carboxy-4-(19-carboxynonadecanoylamino)butanoyl]-[Arg17,Pro21,Pro27,Lys35]-h-amylin (peptide)
peptide: K([γGlu-C20 diacid])CNTATCATQRLANFLRHSSPNFGAIPSSTNVGSKTY-NH2
modifications: disulfide 2-7; N-terminus assumed
SMILES: CC[C@H](C)[C@H](NC(=O)[C@H](C)NC(=O)CNC(=O)[C@H](Cc1ccccc1)NC(=O)[C@H](CC(N)=O)NC(=O)[C@@H]1CCCN1C(=O)[C@H](CO)NC(=O)[C@H](CO)NC(=O)[C@H](Cc1c[nH]cn1)NC(=O)[C@H](CCCNC(=N)N)NC(=O)[C@H](CC(C)C)NC(=O)[C@H](Cc1ccccc1)NC(=O)[C@H](CC(N)=O)NC(=O)[C@H](C)NC(=O)[C@H](CC(C)C)NC(=O)[C@H](CCCNC(=N)N)NC(=O)[C@H](CCC(N)=O)NC(=O)[C@@H](NC(=O)[C@H](C)NC(=O)[C@@H]1CSSC[C@H](NC(=O)[C@@H](N)CCCCNC(=O)CC[C@H](NC(=O)CCCCCCCCCCCCCCCCCCC(=O)O)C(=O)O)C(=O)N[C@@H](CC(N)=O)C(=O)N[C@@H]([C@@H](C)O)C(=O)N[C@@H](C)C(=O)N[C@@H]([C@@H](C)O)C(=O)N1)[C@@H](C)O)C(=O)N1CCC[C@H]1C(=O)N[C@@H](CO)C(=O)N[C@@H](CO)C(=O)N[C@H](C(=O)N[C@@H](CC(N)=O)C(=O)N[C@H](C(=O)NCC(=O)N[C@@H](CO)C(=O)N[C@@H](CCCCN)C(=O)N[C@H](C(=O)N[C@@H](Cc1ccc(O)cc1)C(N)=O)[C@@H](C)O)C(C)C)[C@@H](C)O
notes: modifications are with respect to human amylin; also called compound 35
Take B4: the IC50 is 0.948 nM in assay [1] and 61.7 nM in assay [4]. Moreover, in assay [2], the “Ratio rCT/rAmylin binding” value came out at 65.1. Also, in assay [3], the “Ratio hCT/hAmylin binding” value came out at 50.3.

The values above are taken from patent US20140087995A1 (published 2014).
